Experimental data as given in patent US20240287172A1 (SCIRHOM, published 2024).
Substitutions are numbered along the chain they refer to.

T1: hiR2-FL-L539A-T7 (human, UniProt Q6PJF5 1-856)
T1 construct: on MEF-DKO cells
T1 sequence: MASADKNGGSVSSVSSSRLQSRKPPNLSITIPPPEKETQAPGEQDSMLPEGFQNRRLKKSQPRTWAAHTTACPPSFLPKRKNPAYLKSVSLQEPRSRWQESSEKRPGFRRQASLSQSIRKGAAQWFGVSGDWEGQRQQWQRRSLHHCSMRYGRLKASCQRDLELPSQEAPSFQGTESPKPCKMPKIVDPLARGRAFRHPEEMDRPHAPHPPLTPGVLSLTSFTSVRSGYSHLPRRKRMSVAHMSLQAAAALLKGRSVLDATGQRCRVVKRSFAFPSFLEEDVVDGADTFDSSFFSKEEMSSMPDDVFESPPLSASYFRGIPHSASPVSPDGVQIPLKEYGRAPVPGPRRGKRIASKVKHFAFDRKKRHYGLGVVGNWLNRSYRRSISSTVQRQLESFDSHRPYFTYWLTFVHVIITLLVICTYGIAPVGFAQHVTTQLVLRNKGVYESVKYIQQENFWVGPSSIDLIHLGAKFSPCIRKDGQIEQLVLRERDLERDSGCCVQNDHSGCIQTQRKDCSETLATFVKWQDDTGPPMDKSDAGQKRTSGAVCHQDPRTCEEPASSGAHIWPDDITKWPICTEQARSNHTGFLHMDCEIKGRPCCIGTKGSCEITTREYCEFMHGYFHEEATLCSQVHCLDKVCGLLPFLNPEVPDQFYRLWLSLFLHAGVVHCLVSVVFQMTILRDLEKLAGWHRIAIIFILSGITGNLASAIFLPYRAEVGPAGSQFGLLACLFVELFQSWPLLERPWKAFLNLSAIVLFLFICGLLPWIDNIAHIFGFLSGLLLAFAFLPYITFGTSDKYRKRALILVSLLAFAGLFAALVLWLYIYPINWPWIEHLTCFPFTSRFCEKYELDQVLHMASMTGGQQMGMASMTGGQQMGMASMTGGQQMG

B1: antibody 16 (antibody, V domains shown)
VH: QVTLKESGPGILQPSQTLSLTCSFSGFSLSTFALGVGWIRQPSGRGLEWLAHIWWDDDKYYNPALKSRLTISKDTSKNHVFLKIANVDTADTATYYCARITTYYYGMDYWGQGTSVTVSS
VL: DIVLSQSPATLSVTPGDSVSLFCRASQSIGNHLHWYQQESHASPRLLIKYASQSISGIPSRFSGSGSGTDFTLSINSVETEDFGMYFCQQSYNWPLTFGAGTKLELK
notes: mouse IgG, kappa light chain; also called clone #16; purified antibody 16
B2: antibody 5 (antibody, V domains shown)
VH: QVTLKESGPGILQPSQTLSLTCSFSGFSLSTFGMGVGWIRQPSGKGLEWLAHIWWDDEKYYNSALKSRLTISKATSKNQAFLKIANVDTADTATYYCARISNYGSNYWYFNVWGTGTTVTVSS
VL: QVVLTQSPALMSASPGEKVTMTCSAGSSVSCMYWYQQKPGSSPRVLIYDTSNLASGVPARFTGSGSGTSYSLTISRMEAEDAASYYCQQWNSYPLTFGAGTKLELK
notes: mouse IgG, kappa light chain; also called clone #5; purified antibody 5
B3: antibody 22 (antibody, V domains shown)
VH: B2 VH with A80V
VL: B2 VL with C31Y, S84T
notes: mouse IgG, kappa light chain; also called clone #22; purified antibody 22
B4: antibody 42 (antibody, V domains shown)
VH: B2 VH with F24L, M34R, S63P, A74D, A80V, K83R, S101Q, N111D
VL: LIVLTQSPAIMSASPGEKVTMTCGATSRISYMFWYQQKPGSSPRVLIYDTSNLASGVPVRFSGSGSGTSYSLTISRVEAEDVATYYCQQWNSYPLTFGAGTKLELK
notes: mouse IgG, kappa light chain; also called clone #42; purified antibody 42
B5: antibody 3 (antibody, V domains shown)
VH: QVTLKESGPGILQPSQTLSLTCSFSGFSLTTFAMGIGWVRQPSGKGLEWLAHIWWDGEKYNNPVLKSRLTISKDTSKNQVFLRIANVDTPDTATYYCARISSIYYIIDNWGQGTSVTVSS
VL: B1 VL with S5T, D17H, F22S, G30S, H32N, Q38K, E39K, A42E, A51V
notes: mouse IgG, kappa light chain; also called clone #3; purified antibody 3
B6: antibody 34 (antibody, V domains shown)
VH: QVTLKESGPGILQPSQTLSLTCSFSGFSLSTFSLGVGWIRQSSGKGLEWLAHIWWDDEKYYNPALKSRLTISKDTSKNQVFLKIANVDAADTATYYCARAYYSKSYYALDYWGQGTSVTVSS
VL: DIQMTQSPSSLSASLGERVSLTCRASQEISGYLSWLQQKPDGTIKRLIYAASTLDSGVPKRFSGSRSGSDYSLAISSLESEDFADYYCLQYANFPFTFGSGTKLEIK
notes: mouse IgG, kappa light chain; also called clone #34; purified antibody 34
B7: antibody 43 (antibody, V domains shown)
VH: B2 VH with T3A, P42S, H52N, E58D, S63P, A74D, T75A, S101G, N111D
VL: B4 VL with L1Q, K18R, G24S, T26N, F33Y, V45L, V77M, V82A, Y86N, N91S
notes: mouse IgG, kappa light chain; also called clone #43; purified antibody 43
B8: antibody 44 (antibody, V domains shown)
VH: B2 VH with G44E, E58D, S63P, A74D, A80I, A85T, D91E, A98S, S101G, N111D
VL: QIVLTQSPAVMSASPGEKVTMTCTASSSVYYMYWYQQTPGSSPRLLIYDTSNLASGVPVRFSGSGSGTSYSLTISRMEAEDAATYYCQQWNTYPLTFGAGTKLELK
notes: mouse IgG, kappa light chain; also called clone #44; purified antibody 44
B9: antibody 48 (antibody, V domains shown)
VH: QVQLQQSGTELVRPGTSVKVSCKASGYAFTNYLIEWVKQRPGQGLEWIGVINPGSGFTKYNEKFKGKATLTADKSSSTVYMHLSSLTSEDSAVYFCARGLYRAMDYWGQGTSVTVSS
VL: DIQMTQSPASQSASLGESVTITCLASQTIATWLAWYQQKPGKSPQLLIYGATTLADGVPSRFSGGGSGTKFSFKISSLQAEDFVSYYCQQLYSTPYTFGGGTKLEIK
notes: mouse IgG, kappa light chain; also called clone #48; purified antibody 48

Biological target: T1, hiR2-FL-L539A-T7
Test: FACS, MEF-DKO cells, 3 µg/ml

| Binder | loss of binding vs wild type |
| --- | --- |
| B1 | ≥ 30% |
| B2 | ≥ 95% |
| B3 | ≥ 95% |
| B4 | ≥ 95% |
| B5 | ≥ 95% |
| B6 | ≥ 95% |
| B7 | ≥ 95% |
| B8 | ≥ 95% |
| B9 | ≥ 30% |
